Molecular target: V1ΔC (S. cerevisiae, UniProt P17255 2-283; P17255 738-1071; P16140 1-517; P32610 1-256; P22203 1-233; P39111 …)
Experiment: BLI

B1: MBP-C (natural protein, S. cerevisiae, UniProt P31412 1-392, looked up)
chain: MATALYTANDFILISLPQNAQPVTAPGSKTDSWFNETLIGGRAFVSDFKIPEFKIGSLDTLIVESEELSKVDNQIGASIGKIIEILQGLNETSTNAYRTLPINNMPVPEYLENFQWQTRKFKLDKSIKDLITLISNESSQLDADVRATYANYNSAKTNLAAAERKKTGDLSVRSLHDIVKPEDFVLNSEHLTTVLVAVPKSLKSDFEKSYETLSKNVVPASASVIAEDAEYVLFNVHLFKKNVQEFTTAAREKKFIPREFNYSEELIDQLKKEHDSAASLEQSLRVQLVRLAKTAYVDVFINWFHIKALRVYVESVLRYGLPPHFNIKIIAVPPKNLSKCKSELIDAFGFLGGNAFMKDKKGKINKQDTSLHQYASLVDTEYEPFVMYIINL
Binder B1 has a Kd of roughly 0.7 nM.
